According to patent US20250108137A1, “APTAMERS SPECIFIC TO EBV-ASSOCIATED MALIGNANCIES AND THEIR APPLICATIONS IN CANCER IMAGING AND THERAPIES” (priority 2022, published 2025):

T1: MTDH (Homo sapiens, UniProt Q86UE4)
T1 construct: endogenous in cells; host or cells: EBV-positive NPC43 cells
T1 sequence (Q86UE4 1-582): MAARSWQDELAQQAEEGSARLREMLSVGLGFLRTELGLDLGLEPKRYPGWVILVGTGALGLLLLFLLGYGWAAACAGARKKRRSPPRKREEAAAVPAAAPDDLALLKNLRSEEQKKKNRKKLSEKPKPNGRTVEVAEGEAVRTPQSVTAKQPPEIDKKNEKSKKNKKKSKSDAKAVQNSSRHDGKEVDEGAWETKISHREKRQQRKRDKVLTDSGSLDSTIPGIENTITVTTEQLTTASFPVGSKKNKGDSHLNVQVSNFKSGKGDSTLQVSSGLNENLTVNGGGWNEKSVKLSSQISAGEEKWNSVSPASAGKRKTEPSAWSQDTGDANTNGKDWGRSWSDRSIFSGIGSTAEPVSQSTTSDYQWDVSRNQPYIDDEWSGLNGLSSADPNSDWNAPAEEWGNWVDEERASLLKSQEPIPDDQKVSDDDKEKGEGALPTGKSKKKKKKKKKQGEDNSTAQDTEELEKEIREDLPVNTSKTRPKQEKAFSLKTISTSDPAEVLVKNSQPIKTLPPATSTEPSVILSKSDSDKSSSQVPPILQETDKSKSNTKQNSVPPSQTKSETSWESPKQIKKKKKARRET

B1: Apt-2019: DNA aptamer, SEQ ID NO: 1, from Cell-SELEX on LMP1-expressing NPC43 cells; binds CNBP (nucleic acid)
DNA: ATCCAGAGTGACGCAGCAGAATGGGTGGGATTCCTCAGAGGGGTTGGTGAGTTTGTGATGGACACGGTGGCTTAGT
modifications: DNA, backbone and methylation of C not given here; further chemistry not fully specified
B2: Apt-1798: DNA aptamer, SEQ ID NO: 3, top enriched sequence targeting EBV-positive cells (nucleic acid)
DNA: ATCCAGAGTGACGCAGCAATCGTGGACCTGGCTGTGGTTTGCTGAGGTGGGCGCCAATTGGACACGGTGGCTTAGT
modifications: DNA, backbone and methylation of C not given here
B3: Apt-1194: DNA aptamer, SEQ ID NO: 2, from Cell-SELEX and in vivo-SELEX on EBV-positive NPC43; binds MTDH (nucleic acid)
DNA: ATCCAGAGTGACGCAGCACCGAGCGAGTTGGTTTGCTGCGGTGGGCAGAGAGGTGGGGTGGACACGGTGGCTTAGT
modifications: DNA, backbone and methylation of C not given here; further chemistry not fully specified

Legend:
CNBP-knockout cells = assay: Aptamer binding to CNBP-knockout vs parental NPC cells
Description: (§1) 10 μM aptamers or aptamer pools were dissolved in DBPS with 5 mM MgCl2 as stock and diluted with binding buffer (DBPS with 5 mM MgCl2, 0.1% BSA, […] and 0.45% glucose) into 200 nM, followed by heating at 95° C. to 5 mins and chilling on ice for 5 mins. Cells were trypsinized and incubated in the aptamer solution at 4° C. for 30-60 mins. After incubation, the cells were washed once by precooled binding buffer. At last, the samples were analyzed on BD flowcytometry. For flow cytometric analysis of bead assay, the NTA beads were incubated with CNBP-his or MTDH-his containing cell lysates or control lysates for 1 hr at 4° C. and then washed with binding buffer for 3 times. After that, the beads were incubated with FAM-Apt-2019 or FAM-Apt-1194 (200 nM) for 30 mins at 4° C. At last, the bead-aptamer complexes were washed 3 times with binding buffer and analyzed by BD flow cytometer.
(§2) To identify the target surface protein which was bound by the Apt-2019 on LMP1-expressing cells, we have performed pull-down assay using Apt-2019. […] The proteins from this band were purified from the gel and subjected for protein identification by tandem mass spectrometry (MS/MS). […] To validate CNBP as the target of Apt-2019, the pull-down proteins from Apt-2019 and Apt-library in LMP1-cell lysates were blotted by the antibody against CNBP (FIG. 2A). […]

CNBP [1] = biological target: T2, CNBP (Homo sapiens, UniProt P62633); assay: Flow analysis of CNBP-tagged and non-tagged beads with Apt-2019-FAM; format: binding; details: Apt-2019-FAM 200 nM; CNBP-tagged vs non-tagged beads
T2 construct: endogenous in cells; host or cells: LMP1-expressing NPC43(noEBV) cell lysate
Description: as §1, §2

[2] = compared with random aptamer sequences
NPC43^noEBV-LMP1 cells = assay: Flow cytometry and confocal binding to LMP1-expressing cells vs vector control; details: among 8 selected aptamers; flow cytometric analysis and confocal microscopy; FAM-tagged
Description: as §1, with “cytometer. […]” for “cytometer.”
(§3) Identification of Apt-2019 which preferentially binds to LMP1-expressing cells. […] Flow cytometric analyses have shown the gradual increase of fluorescence signals on NPC43^noEBV-LMP1 cells bound with the FAM-tagged aptamers enriched from round 9, 11 and 12 Cell-SELEX (FIG. 1A), indicating a successful enrichment process. […] 8 sequences were selected out based on the sequence similarity and abundance of sequence reads. […]

CNBP [3] = biological target: T2, CNBP; assay: Pull-down assay with mass spectrometry and western blot (LMP1-cell lysates); format: binding; details: band around 20 kd vs Apt-library; MS/MS; blotted with CNBP antibody
Description: (§4) The pulldown assay was performed by following the protocol from Shang Guan's lab. Then the protein samples were separated in PAGE gels and stained by pierce silver staining kit from Life Technology. The specific bands around 20 kDa or 70 kDa were sent to Biotech Company (Bei Jing) for mass spectrometry analysis.
To identify the target surface protein which was bound by the Apt-2019 on LMP1-expressing cells, we have performed pull-down assay using Apt-2019. […] The proteins from this band were purified from the gel and subjected for protein identification by tandem mass spectrometry (MS/MS). […] To validate CNBP as the target of Apt-2019, the pull-down proteins from Apt-2019 and Apt-library in LMP1-cell lysates were blotted by the antibody against CNBP (FIG. 2A). The docking model between the Apt-2019 and CNBP was also predicted by HDOCK (sec worldwide website: hdock.phys.hust.edu.cn/) (FIG. 2A). Another validation assay was done by flow analysis of CNBP-tagged and non-tagged beads after binding with Apt-2019-FAM (FIG. 2B). […] Moreover, Apt-2019-bounded CNBP was specifically expressed on the cell surface, as both the fluorescent signals of CNBP and Apt-2019 were localized on the ‘non-permeabilized’ NPC43-LMP1 cells. (FIG. 3A). […] All these confirmed Apt-2019 could bind to the cell surface CNBP on NPC cells. […]

[4] = test system: LMP1-overexpressing NPC43; assay: Equilibrium dissociation constant on cells, FITC-tagged Apt-2019; format: binding; details: serial concentrations of FITC-tagged aptamer
Excerpt: (§5) FIGS. 5A-5G. Characterization of Apt-2019 and Apt-1194. (FIG. 5A) Diagram showing the G-quadraplex structure that can be formed by G-rich aptamers. (FIGS. 5B-5C) Fluorescent enhancement assay (FEA) was used to detect G-quadraplex forming sequences. Both Apt-2019 and Apt-1194 could form into G-quadraplex in the presence of K+ or L+ ions and then light up the ThT ligands. […] (FIGS. 5E-5F) A serial concentrations of FITC-tagged Apt-2019 and Apt-1194 were bound with LMP1-overexpressing NPC43 and EBV-positive C666-1 respectively. Equilibrium dissociation constant (Kd) was then calculated. (FIG. 5G) Apt-2019 was allowed to bind with live NPC cells for 45 mins. Internalization of Apt-2019 was validated by Z-stack imaging of confocal microscope.
(§6) 10 μM aptamers or aptamer pools were dissolved in DBPS with 5 mM MgCl2 as stock and diluted with binding buffer (DBPS with 5 mM MgCl2, 0.1% BSA, […] and 0.45% glucose) into 200 nM, followed by heating at 95° C. to 5 mins and chilling on ice for 5 mins. Cells were trypsinized and incubated in the aptamer solution at 4° C. for 30-60 mins. After incubation, the cells were washed once by precooled binding buffer. At last, the samples were analyzed on BD flowcytometry. […] At last, the bead-aptamer complexes were washed 3 times with binding buffer and analyzed by BD flow cytometer.

[5] = test system: C15 tumors (an NPC xenograft with high expression of LMP1); assay: In vivo fluorescence imaging of biodistribution, C15 xenograft; parameters: species or system mice; details: fluorescence-tagged, tail vein injected, IVIS Spectrum imager
Excerpt: Fluorescence-tagged Apt-2019 and Apt-1194 were tail vein injected in mice bearing C15 tumors (an NPC xenograft with high expression of LMP1 (18)) and EBV-positive C666-1 tumors respectively. We have also generated control aptamers to Apt-2019 and Apt-1194 by replacing all the G to C, so as to destroy the G4-forming ability. The resulting control aptamers are named as Apt-NG^2019 (SEQ ID NO: 4; Apt-NG^2019 (14-63) Aptamer: […]) and Apt-NG^1194 (SEQ ID NO:5; Apt-NG^1194 (1-58) Aptamer: […] GGCC). Tumors and organs (e.g., lungs and spleen) were taken out for fluorescence imaging (IVIS Spectrum imager).

[6] = test system: LMP1-expressing NPC43 cells; assay: Internalization by Z-stack confocal microscopy; format: cell-based; details: live cells, 45 mins
Excerpt: as §5
In live cell imaging, the NPC43-LMP1+ and NPC43-LMP1− cells were seeded in 3.5 cm confocal dishes 24 hrs before. The cells were washed with PBS 2 times and then incubated with 200 nM aptamers in binding buffer for 30 mins and washed with DPBS twice after. The Zeiss LSM880 was used for taking confocal images. In immunofluorescence and aptamer co-staining, the cells were fixed by 4% PFA for 15 mins and then blocked with 3% BSA for 1 hr. CNBP antibody was incubated with the cells in 1:100 dilution (Abclonal, 15110) for 1 hr followed with anti-Rabbit Alex-555 antibody (1:500) for 1 h. After washing for 3 times, FAM-Apt-2019 was added and incubated for 1 h.

[7] = test system: LMP1-transfected cell lines including HONE1, C17 and NP460; assay: Binding to other LMP1-transfected cell lines vs vector control; details: compared to the vector control cells
Description: as §1, §3

[8] = Thioflavin T fluorescent enhancement assay for G-quadruplex formation; format: physicochemical; details: lithium cacodylate buffer or potassium phosphate buffer
Excerpt: Thioflavin T (ThT) is kind of G4 ligand dye, and its fluorescent signal would increase after binding to G4 structures. So, it is widely used in detecting G4 structure. The Apt-2019 was stained by ThT with the existence of Lit or Kt. Circular dichroism (CD) spectra was used for determination of the subtype of G4 structure.
Both Apt-2019 and Apt-1194 are guanine-rich oligonucleotides (GROs) in which the G content are 43 and 41% respectively. GROs can form stable G-quadruplex structures because four guanine bases form a square planar structure called a G-quartet through Hoogsteen base pairing, and these G-quartets spontaneously assemble into four-stranded helical structures termed G-quadruplex (G4) (FIG. 5A) (20). It is well known that G4-forming oligonucleotides are relatively stable against nuclease degradation (21). Therefore, we checked if Apt-2019 and Apt-1194 can form G4 using Thioflavin T (ThT) as a fluorescence light-up probe for G4 formation (22). […] The higher serum stability of Apt-2019 and Apt-1194 than random non-GC rich aptamers (FIG. 5D) can thus be explained by their stable G4 structure. To further characterize these novel NPC-targeting aptamers, we have measured their equilibrium dissociation constant (Kd).

[9] = test system: EBV-positive NPC cell lines (NPC43, C666-1 and C17); assay: Binding to a panel of EBV-positive and EBV-negative cell lines; details: EBV-positive NPC43, C666-1, C17; EBV-negative A549, NP460
Description: as §1
(§7) By binding of Apt-1194 & Apt-1798 with a panel of EBV-positive NPC cell lines (NPC43, C666-1 and C17), EBV-negative lung cancer cell line (A549) and nasopharyngcal cell line (NP460), the specificity of Apt-1194 to EBV-positive cells was confirmed (FIG. 4B). Proteins from NPC43 lysate were pulled down by Apt-1194. […] It has been reported that MTDH is a prognosis marker for NPC (19). […] Knockdown of MTDH could suppress proliferation and migration capability in NPC cells (FIG. 4F)

MTDH = biological target: T1, MTDH; assay: Pull-down from NPC43 lysate with mass spectrometry and western blot; format: binding; details: mass spectrometry, validated by Western blot
Description: as §4, §7

EBV-positive C666-1 = assay: Equilibrium dissociation constant on cells, FITC-tagged Apt-1194; format: binding; details: serial concentrations of FITC-tagged aptamer
Excerpt: as §5, §6

[10] = test system: EBV-positive C666-1 tumors; assay: In vivo fluorescence imaging of biodistribution, C666-1 tumors; parameters: species or system mice; details: fluorescence-tagged, tail vein injected, IVIS Spectrum imager
Excerpt: Fluorescence-tagged Apt-2019 and Apt-1194 were tail vein injected in mice bearing C15 tumors (an NPC xenograft with high expression of LMP1 (18)) and EBV-positive C666-1 tumors respectively. […] Tumors and organs (e.g., lungs and spleen) were taken out for fluorescence imaging (IVIS Spectrum imager).

T2 sequence (P62633 whole entry): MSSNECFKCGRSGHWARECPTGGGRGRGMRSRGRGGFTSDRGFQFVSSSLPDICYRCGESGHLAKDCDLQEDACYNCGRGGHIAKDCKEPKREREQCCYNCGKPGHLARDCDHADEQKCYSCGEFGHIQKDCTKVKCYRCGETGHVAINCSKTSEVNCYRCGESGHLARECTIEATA

Row | Molecule | binding after CRISPR-knockout of CNBP (CNBP-knockout cells) | binding to CNBP-tagged beads (CNBP [1]) | serum stability [2] | preferential binding to LMP1-expressing cells (NPC43^noEBV-LMP1 cells) | target identified by pull-down (CNBP [3]) | equilibrium dissociation constant (Kd) [4] | accumulation in the tumors [5] | internalization into cells [6] | specific binding ability in LMP1-transfected cell lines [7] | G-quadruplex (G4) formation, ThT light-up [8] | specific binding to EBV-positive vs EBV-negative cell lines [9] | target identified by pull-down (MTDH) | equilibrium dissociation constant (Kd) (EBV-positive C666-1) | accumulation in the tumors [10]
1 | B1 | inhibited the binding | could specifically bind to the CNBP-tagged beads | much higher serum stability than random aptamer sequences | highest preferential binding to LMP1-expressing cells | CNBP was found to be the potential target | nanomolar range | accumulation | could be internalized | could preferentially bind to all these LMP1-overexpressing cells | could fold into G4 | – | – | – | –
2 | B2 | – | – | – | – | – | – | – | – | – | – | could bind specifically to EBV-positive cell lines but not to EBV-negative cell lines | – | – | –
3 | B3 | – | – | much higher serum stability than random aptamer sequences | – | – | – | – | – | – | could fold into G4 | could bind specifically to EBV-positive cell lines but not to EBV-negative cell lines | MTDH was found to be the target | nanomolar range | accumulation
